Results reported in patent US20150197568A1 (AstraZeneca / MedImmune, published 2015).

T1: Murine IL-6 (murine, UniProt P08505 25-211)
T1 construct: also called mouse IL-6
T1 sequence (looked up): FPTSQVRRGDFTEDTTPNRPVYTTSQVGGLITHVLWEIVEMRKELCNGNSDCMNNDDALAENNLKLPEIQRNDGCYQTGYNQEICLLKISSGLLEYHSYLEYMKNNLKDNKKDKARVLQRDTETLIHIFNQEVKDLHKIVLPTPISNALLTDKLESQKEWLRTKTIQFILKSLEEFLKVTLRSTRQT

T2: Human CNTF (human, UniProt P26441 2-200)
T2 construct: also called ciliary neurotrophic factor
T2 sequence (looked up): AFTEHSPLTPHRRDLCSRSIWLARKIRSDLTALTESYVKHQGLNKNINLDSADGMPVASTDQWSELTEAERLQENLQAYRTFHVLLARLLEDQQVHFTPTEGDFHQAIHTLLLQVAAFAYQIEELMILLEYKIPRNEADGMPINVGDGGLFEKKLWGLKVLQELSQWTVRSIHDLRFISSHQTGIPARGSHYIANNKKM

T3: Human Oncostatin M (human, UniProt P13725 26-221)
T3 construct: also called OsM
T3 sequence (looked up): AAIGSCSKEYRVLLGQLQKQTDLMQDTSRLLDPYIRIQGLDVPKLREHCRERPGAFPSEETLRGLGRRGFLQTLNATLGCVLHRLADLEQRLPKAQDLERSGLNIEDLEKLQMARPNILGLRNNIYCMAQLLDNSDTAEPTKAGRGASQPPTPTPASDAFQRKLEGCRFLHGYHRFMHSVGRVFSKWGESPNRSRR

T4: Rat IL-6 (rat, UniProt P20607 25-211)
T4 sequence (looked up): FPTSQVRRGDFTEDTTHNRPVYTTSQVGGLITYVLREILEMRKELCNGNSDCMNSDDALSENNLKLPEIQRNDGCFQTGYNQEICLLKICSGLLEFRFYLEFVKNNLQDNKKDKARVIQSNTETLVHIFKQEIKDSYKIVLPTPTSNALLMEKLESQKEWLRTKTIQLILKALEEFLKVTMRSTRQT

T5: Human IL-11 (human, UniProt P20809 22-199, limits assumed)
T5 sequence (looked up): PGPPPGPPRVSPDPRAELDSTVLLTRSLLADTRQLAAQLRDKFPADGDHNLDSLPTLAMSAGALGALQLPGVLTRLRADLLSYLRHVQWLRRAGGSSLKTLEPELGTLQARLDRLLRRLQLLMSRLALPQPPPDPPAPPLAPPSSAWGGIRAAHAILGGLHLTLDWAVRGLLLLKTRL

B1: CAN022D10 IgG (antibody, V domains shown)
VH: EVQLVQSGGGLIQPGGSLRLSCAASGFTISSNYMIWVRQAPGKGLEWVSDLYYYAGDTYYADSVKGRFTMSRDISKNTVYLQMNSLRAEDTGVYYCARWADDHYYYIDVWGRGTLVTVSS
VL: DIVMTQSPSTLSASVGDRVTITCRASQGISSWLAWYQQKPGRAPKVLIYKASTLESGVPSRFSGSGSGTDFTLTISSLQPEDFATYYCQQSYSTPWTFGQGTKLEIKR
notes: Biotinylated in the HTRF antibody-ligand assay; also called CAN22D10; parent IgG
B2: Cynomolgus IL-6 (ligand, UniProt P79341 28-212, looked up)
chain: APVLPGEDSKDVAAPHSQPLTSSERIDKHIRYILDGISALRKETCNRSNMCESSKEALAENNLNLPKMAEKDGCFQSGFNEDTCLVKIITGLLEFEVYLEYLQNRFESSEEQARAVQMSTKVLIQFLQKKAKNLDAITTPEPTTNASLLTKLQAQNQWLQDMTTHLILRSFKEFLQSSLRALRQM
notes: mature; also called cyno IL-6; macaque IL-6

Experiments:
[1] = target: T6, HIS FLAG tagged human IL-6 (human, UniProt P05231 30-212); assay: HTRF receptor-ligand competition; HIS FLAG human IL-6 vs biotinylated sIL-6R
T6 construct: In house; also called HIS FLAG IL-6; HIS/FLAG IL-6
Experimental: Unique scFvs were expressed again in bacteria and purified by affinity chromatography (as described by Bannister et al. Purified IgG samples of these clones were also prepared as described in section 1.3. The potencies of these samples were determined by competing a dilution series of the purified preparation against biotinylated sIL-6R for binding to HIS FLAG tagged human IL-6 (in house E. coli derived).
Purified scFv and IgG from positive clones identified from screening were tested in a HTRF® assay for inhibition of binding of HIS FLAG tagged human IL-6 to biotinylated IL-6R. 8 nM biotinylated human IL-6R was pre-incubated for 30 minutes at room temperature in the dark, with 8 nM streptavidin XL^{ent!}™. All dilutions were done in phosphate buffered saline (PBS) containing 0.4 M potassium fluoride and 0.1% BSA (assay buffer).

Murine IL-6 = target: T1, Murine IL-6; assay: DELFIA epitope competition; protein titrated against biotinylated HIS FLAG IL-6 on immobilised CAN022D10 IgG
Experimental: (§1) Titrations of IL-6 species including cynomolgus (in house E. Coli derived), human HIS FLAG IL-6 (in house HEK-EBNA derived), rat and murine IL-6 (both R & D Systems) were tested in each assay to establish the species cross-reactivity of the antibodies. Details of the protocol are provided in the Materials and Methods section.
(§2) Purified IgG were adsorbed onto 96-well Maxisorp microtitre plates (Nunc) in PBS at a concentration which gave a significant signal when biotinylated human IL-6 was added at approximately its estimated Kd for that particular IgG. Excess IgG was washed away with PBS-Tween (0.1% v/v) and the wells were blocked with PBS-Marvel (3% w/v) for 1 h. […] These mixtures were then transferred onto the blocked IgG and allowed to equilibrate for 1.5 h. Unbound antigen was removed by washing with PBS-Tween (0.1% v/v), while the remaining biotinylated human IL-6 was detected by streptavidin-Europium3+ conjugate (DELFIA® detection, PerkinElmer). Time-resolved fluorescence was measured at 620 nm on an EnVision plate reader (PerkinElmer). Fluorescence data was converted to % specific binding (100% was determined from control wells containing biotinylated human IL-6 but no competitor, 0% was from wells containing biotinylated human IL-6 and a 100-fold excess of unbiotinylated human IL-6). Resultant data were analysed using Prism curve fitting software (Graphpad) to determine IC50 values according to Equation 3.

Human CNTF = target: T2, Human CNTF; assay: as above
Experimental: as §1, §2

Human LIF = Human LIF (human, UniProt P15018 23-202); assay: as above
Chain of Human LIF (P15018 23-202 limits assumed): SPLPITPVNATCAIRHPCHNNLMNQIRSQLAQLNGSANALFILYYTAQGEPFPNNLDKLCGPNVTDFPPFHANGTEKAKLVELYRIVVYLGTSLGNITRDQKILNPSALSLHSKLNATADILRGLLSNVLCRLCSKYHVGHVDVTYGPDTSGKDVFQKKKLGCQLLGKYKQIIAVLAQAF
Experimental: as §1, §2

Human Oncostatin M = target: T3, Human Oncostatin M; assay: as above
Experimental: as §1, §2

Rat IL-6 = target: T4, Rat IL-6; assay: as above
Experimental: as §1, §2

Human IL-11 = target: T5, Human IL-11; assay: as above
Experimental: as §1, §2

Mature human IL-6 [2] = target: T7, Mature human IL-6 (human, UniProt P05231 30-212); assay: cell-based or functional assay
Mature human IL-6 [3] = target: T7, Mature human IL-6; assay: cell-based or functional assay; remark: listed apart in the source
Cynomolgus IL-6 = target: B2; assay: SPR, BIAcore 2000; IgG amine-coupled to CM5 chip, IL-6 as analyte
Experimental: (§3) Human and cynomolgus IL-6 at a range of concentrations between 200 nM and 0.2 nM in HBS-EP buffer were passed over the sensor chip surface. The resulting sensorgrams were evaluated using BIA evaluation 3.1 software to provide relative binding data.
(§4) BIAcore studies were undertaken using a BIAcore 2000™. […] Human IL-6 at a range of concentrations between 200 nM and 0.2 nM in HBS-EP buffer were passed over the sensor chip surface. The resulting sensorgrams were evaluated using BIA evaluation 3.1 software to calculate the kₒₙ, koff and KD values for the antibodies tested.

Mature human IL-6 [4] = target: T7, Mature human IL-6; assay: as above
Experimental: as §3, §4

Mature human IL-6 [5] = target: T7, Mature human IL-6; assay: cell-based or functional assay; remark: listed apart in the source
Target sequence in this assay (P05231 30-212): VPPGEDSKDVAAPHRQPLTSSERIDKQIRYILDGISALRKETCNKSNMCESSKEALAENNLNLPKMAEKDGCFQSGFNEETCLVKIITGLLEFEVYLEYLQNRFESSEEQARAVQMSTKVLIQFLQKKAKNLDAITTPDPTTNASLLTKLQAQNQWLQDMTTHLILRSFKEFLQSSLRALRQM

Mature human IL-6 [6] = target: T7, Mature human IL-6; assay: cell-based or functional assay; remark: listed apart in the source
Target sequence in this assay (P05231 30-212): as above

CAN022D10 IgG = target: B1; assay: DELFIA epitope competition; protein titrated against biotinylated HIS FLAG IL-6 on immobilised CAN022D10 IgG
Experimental: as §1, §2

Binder | IC50 [1] [pM] | Mean IC50, inhibition of IL-6 induced IgM secretion from SKW6.4 cells, n=3 (Mature human IL-6 [3]) [pM] | Kd (Cynomolgus IL-6) [pM] | Kd (Mature human IL-6 [4]) [pM] | IC50, IL-6 induced TF-1 cell proliferation assay (Mature human IL-6 [5]) [pM] | IC50, endogenous IL-6 induced synovial fibroblast VEGF release assay (Mature human IL-6 [6]) [pM] | other results
CAN022D10 scFv (scFv, V domains shown, Purified scFv from bacteria; also called CAN22D10; parent; not shown: scFv linker, domain order and any purification tags) VH: EVQLVQSGGGLIQPGGSLRLSCAASGFTISSNYMIWVRQAPGKGLEWVSDLYYYAGDTYYADSVKGRFTMSRDISKNTVYLQMNSLRAEDTGVYYCARWADDHYYYIDVWGRGTLVTVSS VL: DIVMTQSPSTLSASVGDRVTITCRASQGISSWLAWYQQKPGRAPKVLIYKASTLESGVPSRFSGSGSGTDFTLTISSLQPEDFATYYCQQSYSTPWTFGQGTKLEIKR | 45000 | – | – | – | – | – | –
B1 | 310 | – | – | – | – | – | binding result (Murine IL-6): no binding; binding result (Human CNTF): no binding; binding result (Human LIF): no binding; binding result (Human Oncostatin M): no binding; binding result (Rat IL-6): no binding; binding result (Human IL-11): no binding; IC50, IL-6 induced TF-1 cell proliferation (Mature human IL-6 [2]): 93000 pM; IC50, endogenous IL-6 induced VEGF release from human synovial fibroblasts (Mature human IL-6 [2]): 45000 pM
Antibody 7 (GL) IgG (antibody, V domains shown, Germlined IgG1 with human kappa constant domain; also called Ab 7) VH: EVQLVESGGGLVQPGGSLRLSCAASGFTISSNYMIWVRQAPGKGLEWVSDLYYYAGDTYYADSVKGRFTMSRDISKNTVYLQMNSLRAEDTAVYYCARWADDHPAWVDLWGRGTLVTVSS VL: DIQMTQSPSTLSASVGDRVTITCRASQGISSWLAWYQQKPGKAPKVLIYKASTLESGVPSRFSGSGSGTEFTLTISSLQPDDFATYYCQQSWLGGSFGQGTKLEIKR | – | 2.64 | < 10 | < 10 | 5 | 750 | –
Antibody 18 (GL) IgG (antibody, V domains shown, Germlined IgG1/kappa; also called Ab 18) VH: EVQLVESGGGLVQPGGSLRLSCAASGFTISSNYMIWVRQAPGKGLEWVSDLYYYAGDTYYADSVKGRFTMSRDISKNTVYLQMNSLRAEDTAVYYCARWADDHPPWIDLWGRGTLVTVSS VL: DIQMTQSPSTLSASVGDRVTITCRASQGISSWLAWYQQKPGKAPKVLIYKASTLESGVPSRFSGSGSGTEFTLTISSLQPDDFATYYCQQSWLGGSFGQGTKLEIKR | – | 2.63 | < 10 | < 10 | 3 | 930 | –
Antibody 17 (GL) IgG (antibody, V domains shown) VH: EVQLVESGGGLVQPGGSLRLSCAASGFTISSNYMIWVRQAPGKGLEWVSDLYYYAGDTYYADSVKGRFTMSRDISKNTVYLQMNSLRAEDTAVYYCARWADDHPPYIDMWGRGTLVTVSS VL: DIQMTQSPSTLSASVGDRVTITCRASQGISSWLAWYQQKPGKAPKVLIYKASTLESGVPSRFSGSGSGTEFTLTISSLQPDDFATYYCQQSWLGGSFGQGTKLEIKR | – | 3.21 | – | – | 1 | 570 | –
B2 | – | – | – | – | – | – | IC50 (CAN022D10 IgG): ~100000 pM
